This is an account of results in publication PMC5514391 (EBioMedicine, 2017).

Residue numbers refer to the chain shown, from its start. In names and notes the source's numbering stands.

This data set concerns the molecule itself. The experiment in a line: SEC.

B1: AdcR H42A/H108A (site 1 metal ligand mutant) (natural protein)
chain: MGTLEKKLDNLVNTILLKAENQHELLFGACQSDVKLTNTQEAILMLLSQQRLTNTDLAKALNISQAAVTKAIKSLVKQDMLAGTKDTVDARVTYFELTELAKPIASEATHHHDETLNVYNRLLQKFSAKELEIVDKFVTVFAEELEG
For the protein B1, the “stoichiometry N” value is 2.

B2: AdcR C30A (site 2 metal ligand mutant) (natural protein)
chain: B1 chain with C30A, A42H, A108H
With B2, the “stoichiometry N” value came to 2.
